Source: patent publication US20230312684A1 (PINETREE THERAPEUTICS, published 2023)
pEC50: −log10 of the molar value.

How the values were obtained:
[1] = biological target: RSV-F (amino acids 1-529), (Extracellular Domain) protein (His tag), ABIN2006856 (respiratory syncytial virus) (UniProt P03420); test: ELISA, RSV F coated, anti-human IgG-HRP
[2] = biological target: SARS-CoV-2 (antigen of the ELISA of Example 17; protein not specified) (SARS-CoV-2); test: ELISA by the method of Example 15, SARS-CoV-2 antigen

Row | Substance | pEC50 [1] | pEC50 [2]
1 | SEQ ID NO: 128, b1b2-Fc (NRP1, K358E, K373E, R513E, K514E, K516E) (Fc fusion) | 7.37 | –
2 | SEQ ID NO: 204, b1b2-Fc-ACE2 (NRP1, K358E, K373E, R513E, K514E, K516E) (Fc fusion) | 7.04 | –
3 | SEQ ID NO: 139, b1b2-b1b2-Fc (NRP1, E319A, double b1b2) (Fc fusion) | – | 7.09
